From US20230167164A1 (IMMUNOWAKE, published 2023)
Positions count from the first letter of the chain named. Names may count otherwise.

Experiments:
human CD4 on cells = target: T1, human CD4 on cells (human, UniProt P01730 26-458); assay: FACS on CD4+ T cells
T1 construct: whole, on cells; also called CD4+ T cells; HEK-CD4-IFN-γ cells

[1] = target: human IL-12 receptor complex (human, UniProt P42701 24-662; Q99665 24-862); assay: cell-based or functional assay
CD8 on CD8+ T cells = target: T2, CD8 on CD8+ T cells (human, UniProt P01732 22-235); assay: FACS on CD8+ T cells
T2 construct: whole, on cells

IL-23 receptor complex = IL-23 receptor complex (UniProt P42701 24-662; Q5VWK5 24-629, limits assumed); assay: cell-based or functional assay
human PD-1 [2] = target: T3, human PD-1 (human, UniProt Q15116 25-167, limits assumed); assay: Biacore and cell-based assays, calibrated by wildtype nivolumab binding affinity
T3 construct: nivolumab is called an anti-human PD-1 antibody; also called hPD-1

human PD-1 [3] = target: T3, human PD-1; assay: PD-L2-Fc format, calibrated on PD-L2(wt)-Fc binding affinity
mouse PD-1 = target: T4, mouse PD-1 (mouse, UniProt Q02242 25-167, limits assumed); assay: as above
T4 construct: also called mPD-1
T4 sequence (looked up): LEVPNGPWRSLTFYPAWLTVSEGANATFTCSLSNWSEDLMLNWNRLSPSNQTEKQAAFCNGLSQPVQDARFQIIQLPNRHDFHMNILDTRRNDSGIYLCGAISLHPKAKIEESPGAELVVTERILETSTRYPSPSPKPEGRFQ

T3 sequence (Q15116 25-167 limits assumed): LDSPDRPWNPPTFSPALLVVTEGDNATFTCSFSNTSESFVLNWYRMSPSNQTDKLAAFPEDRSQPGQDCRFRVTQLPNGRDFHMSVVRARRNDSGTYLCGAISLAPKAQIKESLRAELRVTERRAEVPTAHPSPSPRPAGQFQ
Sequence of IL-23 receptor complex (Q5VWK5 24-629 limits assumed, chain 2 of 2, other chains not shown): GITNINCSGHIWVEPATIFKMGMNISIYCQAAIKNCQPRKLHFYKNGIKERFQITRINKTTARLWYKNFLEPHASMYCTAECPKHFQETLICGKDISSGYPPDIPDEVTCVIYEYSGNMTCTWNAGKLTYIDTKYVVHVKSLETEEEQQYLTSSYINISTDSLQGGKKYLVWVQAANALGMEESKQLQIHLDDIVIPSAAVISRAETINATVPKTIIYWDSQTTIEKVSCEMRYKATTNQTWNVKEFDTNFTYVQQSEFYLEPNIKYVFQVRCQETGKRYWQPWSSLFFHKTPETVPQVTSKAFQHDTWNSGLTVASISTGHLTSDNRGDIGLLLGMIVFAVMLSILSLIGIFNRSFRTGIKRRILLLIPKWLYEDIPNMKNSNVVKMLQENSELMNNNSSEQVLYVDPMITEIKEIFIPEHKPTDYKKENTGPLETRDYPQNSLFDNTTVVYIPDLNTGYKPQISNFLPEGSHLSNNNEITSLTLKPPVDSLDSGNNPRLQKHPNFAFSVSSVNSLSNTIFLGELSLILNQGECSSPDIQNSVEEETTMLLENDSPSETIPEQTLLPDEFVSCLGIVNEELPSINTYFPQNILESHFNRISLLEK
Sequence of human IL-12 receptor complex (Q99665 24-862, chain 2 of 2, other chains not shown): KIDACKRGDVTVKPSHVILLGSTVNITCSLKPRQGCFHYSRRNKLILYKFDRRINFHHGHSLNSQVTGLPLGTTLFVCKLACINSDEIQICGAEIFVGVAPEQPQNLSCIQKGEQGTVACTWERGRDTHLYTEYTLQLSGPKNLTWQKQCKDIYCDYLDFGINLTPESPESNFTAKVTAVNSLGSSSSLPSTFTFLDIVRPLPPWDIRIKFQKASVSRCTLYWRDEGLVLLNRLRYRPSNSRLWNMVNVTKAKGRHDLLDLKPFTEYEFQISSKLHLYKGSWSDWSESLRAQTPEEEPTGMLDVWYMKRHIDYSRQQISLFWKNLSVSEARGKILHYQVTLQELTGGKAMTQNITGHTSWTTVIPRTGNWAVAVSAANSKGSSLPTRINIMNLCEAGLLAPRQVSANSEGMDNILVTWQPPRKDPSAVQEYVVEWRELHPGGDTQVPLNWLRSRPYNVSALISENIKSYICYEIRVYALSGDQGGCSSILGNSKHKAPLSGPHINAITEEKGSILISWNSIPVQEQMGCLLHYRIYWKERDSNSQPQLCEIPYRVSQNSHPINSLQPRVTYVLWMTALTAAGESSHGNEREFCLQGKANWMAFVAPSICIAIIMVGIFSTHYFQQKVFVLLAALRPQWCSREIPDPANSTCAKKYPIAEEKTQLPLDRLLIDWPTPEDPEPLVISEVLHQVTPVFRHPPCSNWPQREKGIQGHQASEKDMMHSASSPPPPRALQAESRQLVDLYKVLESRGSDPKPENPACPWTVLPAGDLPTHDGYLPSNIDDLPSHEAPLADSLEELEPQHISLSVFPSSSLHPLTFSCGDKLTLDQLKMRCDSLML
T2 sequence (P01732 22-235): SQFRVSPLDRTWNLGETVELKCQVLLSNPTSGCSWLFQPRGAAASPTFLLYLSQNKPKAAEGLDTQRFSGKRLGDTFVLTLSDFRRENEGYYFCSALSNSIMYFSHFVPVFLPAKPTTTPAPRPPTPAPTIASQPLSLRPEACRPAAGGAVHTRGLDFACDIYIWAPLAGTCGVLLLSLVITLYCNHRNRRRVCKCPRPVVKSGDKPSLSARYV

B1: Fab-IL-12(WT)-Fc-CD8 Ab (other)
heavy 1: EVQLQQSGPELVKPGASVKMSCKASGYTFTDYYMKWVKQSHGKSLEWIGHINPNNDDTFYTQKFKGRATLTVDKSSSTAYMQLNSLTSEDSAVYYCVRDDYDGGWFAYWGQGTLVTVSSASTKGPSVFPLAPSSKSTSGGTAALGCLVKDYFPEPVTVSWNSGALTSGVHTFPAVLQSSGLYSLSSVVTVPSSSLGTQTYICNVNHKPSNTKVDKKVEPKSCDKPGSGIWELKKDVYVVELDWYPDAPGEMVVLTCDTPEEDGITWTLDQSSEVLGSGKTLTIQVKEFGDAGQYTCHKGGEVLSHSLLLLHKKEDGIWSTDILKDQKEPKNKTFLRCEAKNYSGRFTCWWLTTISTDLTFSVKSSRGSSDPQGVTCGAATLSAERVRGDNKEYEYSVECQEDSACPAAEESLPIEVMVDAVHKLKYENYTSSFFIRDIIKPDPPKNLQLKPLKNSRQVEVSWEYPDTWSTPHSYFSLTFCVQVQGKSKREKKDRVFTDKTSATVICRKNASISVRAQDRYYSSSWSEWASVPCSGGGGSGGGGSGGGGSGGGGSGRNLPVATPDPGMFPCLHHSQNLLRAVSNMLQKARQTLEFYPCTSEEIDHEDITKDKTSTVEACLPLELTKNESCLNSRETSFITNGSCLASRKTSFMMALCLSSIYEDLKMYQVEFKTMNAKLLMDPKRQIFLDQNMLAVIDELMQALNFNSETVPQKSSLEEPDFYKTKIKLCILLHAFRIRAVTIDRVMSYLNASDKTHTCPPCPAPEDEGGPSVFLFPPKPKDTLMISRTPEVTCVVVDVSHEDPEVKFNWYVDGVEVHNAKTKPREEQYNSTYRVVSVLTVLHQDWLNGKEYKCKVSNKALPAPIEKTISKAKGQPREPQVYVYPPSREEMTKNQVSLTCLVKGFYPSDIAVEWESNGQPENNYKTTPPVLDEDGSFALVSKLTVDKSRWQQGNVFSCSVMHEALHNHYTQKSLSLSPGK
heavy 2: EVQLQQSGPELVKPGASVKMSCKASGYTFTDYYMKWVKQSHGKSLEWIGHINPNNDDTFYTQKFKGRATLTVDKSSSTAYMQLNSLTSEDSAVYYCVRDDYDGGWFAYWGQGTLVTVSSASTKGPSVFPLAPSSKSTSGGTAALGCLVKDYFPEPVTVSWNSGALTSGVHTFPAVLQSSGLYSLSSVVTVPSSSLGTQTYICNVNHKPSNTKVDKKVEPKSCDKTHTCPPCPAPEKKGGPSVFLFPPKPKDTLMISRTPEVTCVVVDVSHEDPEVKFNWYVDGVEVHNAKTKPREEQYNSTYRVVSVLTVLHQDWLNGKEYKCKVSNKALPAPIEKTISKAKGQPREPQVYVLPPSREEMTKNQVSLLCLVKGFYPSDIAVEWESNGQPENRYMTWPPVLDSDGSFFLYSKLTVDKSRWQQGNVFSCSVMHEALHNHYTQKSLSLSPGK
light: DIQMTQTTSSLSASLGDRVTISCRASQDINNYLNWYQQKSDGTIKLLIYYTSRSYSGVPSRFSGSGSGTDYSLTISNRRQEDIATYFCQQGKTLPWTFGGGTKLEIKRTVAAPSVFIFPPSDEQLKSGTASVVCLLNNFYPREAKVQWKVDNALQSGNSQESVTEQDSKDSTYSLSSTLTLSKADYEKHKVYACEVTHQGLSSPVTKSFNRGEC
For B1, the binding result (human CD4 on cells) was “no binding” and the “IFN-γ release, % of rIL-12, activated CD4+ T cells” value [1] was 21%.

B2: Fab-IL-12(E59A)-Fc-CD8 Ab (other)
heavy 1: B1 heavy 1 with E287A
heavy 2: B1 heavy 2
light: B1 light
For B2, the binding result (human CD4 on cells) was “no binding” and the “IFN-γ release, % of rIL-12, activated CD4+ T cells” value [1] was 2.1%.

B3: Fab-IL-23(WT)-Fc-CD4 Ab (other)
heavy 1: QVQLQQSGPEVVKPGASVKMSCKASGYTFTSYVIHWVRQKPGQGLDWIGYINPYNDGTDYDEKFKGKATLTSDTSTSTAYMELSSLRSEDTAVYYCAREKDNYATGAWFAYWGQGTLVTVSSASTKGPSVFPLAPSSKSTSGGTAALGCLVKDYFPEPVTVSWNSGALTSGVHTFPAVLQSSGLYSLSSVVTVPSSSLGTQTYICNVNHKPSNTKVDKKVEPKSCDKPGSGIWELKKDVYVVELDWYPDAPGEMVVLTCDTPEEDGITWTLDQSSEVLGSGKTLTIQVKEFGDAGQYTCHKGGEVLSHSLLLLHKKEDGIWSTDILKDQKEPKNKTFLRCEAKNYSGRFTCWWLTTISTDLTFSVKSSRGSSDPQGVTCGAATLSAERVRGDNKEYEYSVECQEDSACPAAEESLPIEVMVDAVHKLKYENYTSSFFIRDIIKPDPPKNLQLKPLKNSRQVEVSWEYPDTWSTPHSYFSLTFCVQVQGKSKREKKDRVFTDKTSATVICRKNASISVRAQDRYYSSSWSEWASVPCSGGGGSGGGGSGGGGSGGGGSGRAVPGGSSPAWTQCQQLSQKLCTLAWSAHPLVGHMDLREEGDEETTNDVPHIQCGDGCDPQGLRDNSQFCLQRIHQGLIFYEKLLGSDIFTGEPSLLPDSPVGQLHASLLGLSQLLQPEGHHWETQQIPSLSPSQPWQRLLLRFKILRSLQAFVAVAARVFAHGAATLSPDKTHTCPPCPAPEDEGGPSVFLFPPKPKDTLMISRTPEVTCVVVDVSHEDPEVKFNWYVDGVEVHNAKTKPREEQYNSTYRVVSVLTVLHQDWLNGKEYKCKVSNKALPAPIEKTISKAKGQPREPQVYVYPPSREEMTKNQVSLTCLVKGFYPSDIAVEWESNGQPENNYKTTPPVLDEDGSFALVSKLTVDKSRWQQGNVFSCSVMHEALHNHYTQKSLSLSPGK
heavy 2: QVQLQQSGPEVVKPGASVKMSCKASGYTFTSYVIHWVRQKPGQGLDWIGYINPYNDGTDYDEKFKGKATLTSDTSTSTAYMELSSLRSEDTAVYYCAREKDNYATGAWFAYWGQGTLVTVSSASTKGPSVFPLAPSSKSTSGGTAALGCLVKDYFPEPVTVSWNSGALTSGVHTFPAVLQSSGLYSLSSVVTVPSSSLGTQTYICNVNHKPSNTKVDKKVEPKSCDKTHTCPPCPAPEKKGGPSVFLFPPKPKDTLMISRTPEVTCVVVDVSHEDPEVKFNWYVDGVEVHNAKTKPREEQYNSTYRVVSVLTVLHQDWLNGKEYKCKVSNKALPAPIEKTISKAKGQPREPQVYVLPPSREEMTKNQVSLLCLVKGFYPSDIAVEWESNGQPENRYMTWPPVLDSDGSFFLYSKLTVDKSRWQQGNVFSCSVMHEALHNHYTQKSLSLSPGK
light: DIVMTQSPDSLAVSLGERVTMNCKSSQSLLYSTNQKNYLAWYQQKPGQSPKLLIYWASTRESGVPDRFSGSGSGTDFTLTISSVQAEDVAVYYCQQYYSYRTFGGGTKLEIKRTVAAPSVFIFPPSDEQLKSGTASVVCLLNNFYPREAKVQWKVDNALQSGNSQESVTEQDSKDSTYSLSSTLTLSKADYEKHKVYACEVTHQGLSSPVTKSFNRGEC
In the case of B3, the binding result (CD8 on CD8+ T cells) is reported as “no binding” and the “IFN-γ release, % of rIL-23, activated CD8+ T cells” value (IL-23 receptor complex) is reported as 21%.

B4: Fab-IL-23(E59A)-Fc-CD4 Ab (other)
heavy 1: B3 heavy 1 with E290A
heavy 2: B3 heavy 2
light: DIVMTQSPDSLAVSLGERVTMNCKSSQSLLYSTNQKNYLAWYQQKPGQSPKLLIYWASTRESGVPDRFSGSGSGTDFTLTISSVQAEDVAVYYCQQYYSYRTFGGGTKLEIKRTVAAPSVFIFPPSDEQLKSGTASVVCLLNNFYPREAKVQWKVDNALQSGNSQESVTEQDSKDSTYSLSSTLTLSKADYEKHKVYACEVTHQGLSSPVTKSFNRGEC
In the case of B4, the “IFN-γ release, % of rIL-23, activated CD8+ T cells” value (IL-23 receptor complex) is reported as 2%.

B5: Fab-IL-23(E59A/F60A)-Fc-CD4 Ab (other)
heavy 1: B3 heavy 1 with E290A, F291A
heavy 2: B3 heavy 2
light: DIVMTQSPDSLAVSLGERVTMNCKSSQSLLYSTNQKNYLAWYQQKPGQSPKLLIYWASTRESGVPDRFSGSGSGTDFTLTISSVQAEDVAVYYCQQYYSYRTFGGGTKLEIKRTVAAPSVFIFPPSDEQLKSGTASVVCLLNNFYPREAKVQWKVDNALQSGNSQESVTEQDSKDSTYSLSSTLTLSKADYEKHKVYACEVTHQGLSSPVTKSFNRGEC
B5 was tested, and the binding result (CD8 on CD8+ T cells) was “no binding” and the “IFN-γ release, % of rIL-23, activated CD8+ T cells” value (IL-23 receptor complex) was 0%.

B6: Fab-IL-23(F60A)-Fc-CD4 Ab (other)
heavy 1: B3 heavy 1 with F291A
heavy 2: B3 heavy 2
light: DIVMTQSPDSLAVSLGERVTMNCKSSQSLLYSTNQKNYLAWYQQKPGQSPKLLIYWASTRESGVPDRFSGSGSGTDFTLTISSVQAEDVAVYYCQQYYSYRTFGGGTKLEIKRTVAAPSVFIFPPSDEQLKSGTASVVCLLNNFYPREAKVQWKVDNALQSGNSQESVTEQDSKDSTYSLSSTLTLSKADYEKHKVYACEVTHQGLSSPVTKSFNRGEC
For B6, the “IFN-γ release, % of rIL-23, activated CD8+ T cells” value (IL-23 receptor complex) was 1.5%.

B7: anti-PD-1 antibody HC-CDR3(D100G) (antibody, IgG1, V domains shown)
VH: QVQLVESGGGVVQPGRSLRLDCKASGITFSNSGMHWVRQAPGKGLEWVAVIWYDGSKRYYADSVKGRFTISRDNSKNTLFLQMNSLRAEDTAVYYCATNGDYWGQGTLVTVSS
VL: EIVLTQSPATLSLSPGERATLSCRASQSVSSYLAWYQQKPGQAPRLLIYDASNRATGIPARFSGSGSGTDFTLTISSLEPEDFAVYYCQQSSNWPRTFGQGTKVEIKR
notes: heterodimeric IgG1 as the WT antibody
With B7 the Kd (human PD-1 [2]) was 130 nM.

B8: anti-PD-1 antibody HC-CDR3(D100N) (antibody, IgG1, V domains shown)
VH: B7 VH with G100N
VL: B7 VL
notes: as for B7
In the case of B8, the Kd (human PD-1 [2]) is reported as 25 nM.

B9: anti-PD-1 antibody HC-CDR3(D100R) (antibody, IgG1, V domains shown)
VH: B7 VH with G100R
VL: B7 VL
notes: as for B7
Work on B9 yielded a Kd (human PD-1 [2]) of 910 nM.

B10: anti-PD-1 antibody HC-CDR3(N99G) (antibody, IgG1, V domains shown)
VH: B7 VH with N99G, G100D
VL: B7 VL
notes: as for B7
B10 showed a Kd (human PD-1 [2]) of 2300 nM.

B11: PD-L2(mut1)-Fc (Fc fusion)
chain 1: LFTVTVPKELYIIEHGSNVTLECNFDTGSHVNLGAIVASLQKVENDTSPHRERATLLEEQLPLGKASFHIPQVQVRDEGQYQCIIIYGVAWDYKYLTLKVKASYRKINTHILKVPETDEVELTCQATGYPLAEVSWPNVSVPANTSHSRTPEGLYQVTSVLRLKPPPGRNFSCVFWNTHVRELTLASIDLQSQMEPRTHPTDKTHTCPPCPAPEDEGGPSVFLFPPKPKDTLMISRTPEVTCVVVDVSHEDPEVKFNWYVDGVEVHNAKTKPREEQYNSTYRVVSVLTVLHQDWLNGKEYKCKVSNKALPAPIEKTISKAKGQPREPQVYVYPPSREEMTKNQVSLTCLVKGFYPSDIAVEWESNGQPENNYKTTPPVLDEDGSFALVSKLTVDKSRWQQGNVFSCSVMHEALHNHYTQKSLSLSPGK
chain 2: B11 chain 1 with D215K, E216K, Y332L, T347L, N371R, K373M, T375W, E381S, A386F, V388Y
notes: also called T56V
With B11 the Kd (human PD-1 [3]) was 520 nM and the Kd (mouse PD-1) was 430 nM.

B12: PD-L2(mut2)-Fc (Fc fusion)
chain 1: B11 chain 1 with V37T, S39V
chain 2: LFTVTVPKELYIIEHGSNVTLECNFDTGSHVNLGAITAVLQKVENDTSPHRERATLLEEQLPLGKASFHIPQVQVRDEGQYQCIIIYGVAWDYKYLTLKVKASYRKINTHILKVPETDEVELTCQATGYPLAEVSWPNVSVPANTSHSRTPEGLYQVTSVLRLKPPPGRNFSCVFWNTHVRELTLASIDLQSQMEPRTHPTDKTHTCPPCPAPEKKGGPSVFLFPPKPKDTLMISRTPEVTCVVVDVSHEDPEVKFNWYVDGVEVHNAKTKPREEQYNSTYRVVSVLTVLHQDWLNGKEYKCKVSNKALPAPIEKTISKAKGQPREPQVYVLPPSREEMTKNQVSLLCLVKGFYPSDIAVEWESNGQPENRYMTWPPVLDSDGSFFLYSKLTVDKSRWQQGNVFSCSVMHEALHNHYTQKSLSLSPGK
notes: also called PD-L2(S58V)
With B12 the Kd (human PD-1 [3]) was 350 nM and the Kd (mouse PD-1) was 230 nM.

B13: PD-L2(mut3)-Fc (Fc fusion)
chain 1: B11 chain 1 with V37T, Q41L
chain 2: B12 chain 2 with V39S, Q41L
notes: also called Q60L
With B13 the Kd (human PD-1 [3]) was 490 nM and the Kd (mouse PD-1) was 320 nM.

B14: PD-L2(mut4)-Fc (Fc fusion)
chain 1: B11 chain 1 with S39V, Q41L
chain 2: B12 chain 2 with T37V, Q41L
notes: also called PD-L2(T56V/S58V/Q60L)
For B14, the Kd (human PD-1 [3]) was 255 nM and the Kd (mouse PD-1) was 220 nM.
